Test results: patent US20210040185A1 (ATRECA, published 2021)
Positions count from the first letter of the chain named.

B1: NVS49-L2A1 (antibody, V domains shown)
VH: HVQLVQSGGGVKKIGAAVRISCEVTGYKFMDQLINWVRQAPGQGLEWMGWMNPTYGQVNYSWRFEGRVTMTRDMDTETAFMELRGLRVDDTAVYYCARGPSGENYPFHYWGQGVRVVVSS
VL: ASALTQPASMSASPGQSVTISCSGTRHIISAWFQQYPGKPPKLIIFDDDKRPSGVPSRFSASRPGDTASLTISNVQPEDEATYICNTYEFFGGGTRLTVL
B2: L2A1_H58NS (antibody, V domains shown)
VH: B1 VH with N59S
VL: B1 VL
B3: L2A1_H60SA (antibody, V domains shown)
VH: B1 VH with S61A
VL: B1 VL
B4: L2A1_H58NA (antibody, V domains shown)
VH: B1 VH with N59A
VL: B1 VL
B5: L2A1_H60SN (antibody, V domains shown)
VH: B1 VH with S61N
VL: B1 VL
B6: L2A1_H58ND (antibody, V domains shown)
VH: B1 VH with N59D
VL: B1 VL
B7: L2A1_H58NQ (antibody, V domains shown)
VH: B1 VH with N59Q
VL: B1 VL

The binders below were run against HIV-1 envelope (Env) of virus CAP45.2.00.G3 (HIV-1) (assay: cell-based or functional assay).

Binder | IC50 of viral neutralization (Env.IMC.LucR virus, TZM-BL reporter cells)
B1 | 0.069 µg/mL
B2 | 0.04 µg/mL
B3 | 0.039 µg/mL
B4 | 0.05 µg/mL
B5 | 0.032 µg/mL

Each binder was assayed against HIV-1 envelope (Env) of virus REJO4541.67 (HIV-1) (assay: cell-based or functional assay).

Binder | IC50 of viral neutralization (Env.IMC.LucR virus, TZM-BL reporter cells)
B1 | 0.022 µg/mL
B2 | 0.206 µg/mL
B3 | 0.105 µg/mL
B4 | 0.104 µg/mL
B6 | 0.212 µg/mL
B5 | 0.121 µg/mL
B7 | 0.025 µg/mL

What follows are binders tested against HIV-1 envelope (Env) of virus DU172.17 (HIV-1) (assay: cell-based or functional assay).

Binder | IC50 of viral neutralization (Env.IMC.LucR virus, TZM-BL reporter cells)
B1 | 0.128 µg/mL
B2 | 0.102 µg/mL
B3 | 0.056 µg/mL
B4 | 0.218 µg/mL
B6 | 20.9 µg/mL
B5 | 0.044 µg/mL
B7 | 2.27 µg/mL

The binders below were run against HIV-1 envelope (Env) of virus CNE20 (HIV-1) (assay: cell-based or functional assay).

Binder | IC50 of viral neutralization (Env.IMC.LucR virus, TZM-BL reporter cells)
B1 | 0.05 µg/mL
B2 | > 50 µg/mL
B3 | 0.17 µg/mL
B4 | > 50 µg/mL
B6 | > 50 µg/mL
B5 | 0.317 µg/mL
B7 | > 50 µg/mL

What follows are binders tested against HIV-1 envelope (Env) of virus WITO4160.33 (HIV-1) (assay: cell-based or functional assay).

Binder | IC50 of viral neutralization (Env.IMC.LucR virus, TZM-BL reporter cells)
B1 | 0.213 µg/mL
B2 | 0.182 µg/mL
B3 | 0.148 µg/mL
B4 | 0.259 µg/mL
B6 | 0.65 µg/mL
B5 | 0.212 µg/mL
B7 | 0.222 µg/mL

These binders were tested against HIV-1 envelope (Env) of virus AC10.0.29 (HIV-1) (assay: cell-based or functional assay).

Binder | IC50 of viral neutralization (Env.IMC.LucR virus, TZM-BL reporter cells)
B1 | 0.306 µg/mL
B2 | 0.091 µg/mL
B3 | 0.072 µg/mL
B4 | 0.098 µg/mL
B6 | > 50 µg/mL
B5 | 0.087 µg/mL
B7 | > 50 µg/mL
